The results in this text go back to publication PMC3070748.

For the assay, the target named is Gemin7 BiFC construct (UniProt Q9H840). The assay can be described thus: split reporter.
Chain of UniProt Q9H840 (Q9H840 whole entry): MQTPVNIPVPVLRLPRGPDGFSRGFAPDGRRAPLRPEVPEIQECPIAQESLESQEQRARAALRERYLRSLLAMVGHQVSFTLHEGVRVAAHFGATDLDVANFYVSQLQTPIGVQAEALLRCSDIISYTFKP

In turn, “murine Unrip fused to a Venus fragment (BiFC construct) (from UniProt Q9Z1Z2 1-350) (natural protein)” showed a percent of BiFC-positive cells of 56%.
